Assay results reported in PMC8042443.

Target: GST fusion protein of the α1-syntrophin PDZ domain (UniProt Q61234)
Assay: pull-down; GST fusion proteins immobilised on beads, incubated 1 to 2 h at 4 °C with lysates of MEFs expressing HA-tagged DGKζ constructs; washed at least four times with ice-cold lysis buffer; bound DGKζ detected by anti-HA immunoblot; in some panels cells were treated with vehicle, 100 nM PMA, or 1 μM Gö6976 before PMA

Sequence of GST fusion protein of the α1-syntrophin PDZ domain (Q61234 81-164): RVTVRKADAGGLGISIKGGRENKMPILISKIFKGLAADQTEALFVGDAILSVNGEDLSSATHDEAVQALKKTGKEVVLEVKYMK
Sequence of HA-tagged DGKζ^M1 (all four serine residues in the MARCKS domain changed to aspartate) (Q13574 whole entry, the tested form may be a part): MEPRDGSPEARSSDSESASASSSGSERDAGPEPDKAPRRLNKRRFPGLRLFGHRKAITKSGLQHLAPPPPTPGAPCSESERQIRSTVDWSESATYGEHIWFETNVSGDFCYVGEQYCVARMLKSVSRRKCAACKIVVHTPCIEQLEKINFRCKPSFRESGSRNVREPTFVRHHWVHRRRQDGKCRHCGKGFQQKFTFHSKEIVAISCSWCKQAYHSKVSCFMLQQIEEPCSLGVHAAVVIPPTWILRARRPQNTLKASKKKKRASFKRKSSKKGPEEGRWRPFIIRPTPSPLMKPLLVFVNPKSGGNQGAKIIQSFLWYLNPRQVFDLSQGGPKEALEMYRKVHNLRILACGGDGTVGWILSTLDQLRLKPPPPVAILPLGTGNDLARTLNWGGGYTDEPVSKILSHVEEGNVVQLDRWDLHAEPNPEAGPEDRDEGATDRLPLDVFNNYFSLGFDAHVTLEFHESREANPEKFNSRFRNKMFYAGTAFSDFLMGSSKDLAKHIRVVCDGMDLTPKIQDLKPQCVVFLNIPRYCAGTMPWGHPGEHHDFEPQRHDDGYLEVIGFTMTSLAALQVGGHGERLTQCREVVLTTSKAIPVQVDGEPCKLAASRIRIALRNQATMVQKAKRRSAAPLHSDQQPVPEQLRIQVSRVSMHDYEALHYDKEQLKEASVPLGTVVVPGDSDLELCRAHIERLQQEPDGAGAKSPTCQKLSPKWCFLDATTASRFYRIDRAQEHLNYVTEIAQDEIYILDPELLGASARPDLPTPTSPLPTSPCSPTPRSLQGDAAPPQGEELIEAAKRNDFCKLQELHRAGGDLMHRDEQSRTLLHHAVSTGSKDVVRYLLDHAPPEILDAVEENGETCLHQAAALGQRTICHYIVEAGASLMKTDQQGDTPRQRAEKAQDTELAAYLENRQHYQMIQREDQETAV

HA-tagged DGKζ^M1 (all four serine residues in the MARCKS domain changed to aspartate) (from UniProt Q13574 1-928) (enzyme)
fold binding against DGKζ^WT: 2.5 fold
